Experimental data published in the supplement of paper PMC9170038.

System: MS2 coat protein
Assay: apparent KD of MS2 coat protein; higher = weaker reporter binding
Conditions: Eterna round: R107; input ligand: arginine 13.2 mM
In short: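 Values are apparent KD, taken as the median for each design of fits to normalised binding curves from individual clusters. The designed RNA switches were transcribed on-chip from Illumina sequencing clusters and exposed to SNAP-549-labelled MS2 coat protein at twofold increasing amounts from 0.7 or 1.5 nM to 3 µM. Titration used 100 mM Tris-HCl pH 7.5, 80 mM KCl and 4 mM MgCl2, without or with constant ligand.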

| Sequence | apparent KD of MS2 coat protein [nM] |
| --- | --- |
| CCUGCGUUUCUUUUCUUUCGCAGGAAUGAUACCAGUAGGGAAACCUACCCUUGGCAGCAUGGGACAUGAGGAUCACCCAUGUAAU [SSThA NP+V+V2 #2] | 255 |
| CGCAACCCUAAGGGAUUGUGGUUAUUAGAUACCAGUAUGAUGCAAUACCCUUGGCAGCUAAUACAUGAGGAUCACCCAUGUUGCG [Th A Ex t2] | 13.6 |

Same assay, conditions: Eterna round: R107; input ligand: none

| Sequence | apparent KD of MS2 coat protein [nM] |
| --- | --- |
| AAUCGUAAGGCGGCCGCCACUACACAUGAGGAUCACCCAUGUCUCGCGGGCUUGCGUUGGGAUAGUAGGACCGGGCCAGUAAUAA [Exclusion - Tryptophan B (Freestyle 13)] | 26.2 |
| ACAUGAGGCUCACCCAUGUGUAGUGGGUGGCGAGGACCGGUACGGCCGCCACUCGGCAACAUGAGGAUCACCCAUGUAAGGCCCU [RNA Blob] | 133 |
| ACAUGAGGAUCACCCAUGUAGUGGCACGAUACCAGCUGAUCCCGUGGCCCUUGGCAGCGUCCGGUGUGGUGCGCCGGGAUGGAGC [ZSZMULLIN] | 28.4 |
| GCACAUGAGGAUCACCCAUGUACAACUGAAGGAGCGAGACAGAACUCAGGUAGGUCGCAGAAUGCACAAUAGCAUACGACAUGGG [Exclusion Arginine A GF20] | 20.8 |
| GCCUGGGAUACGGCCGCCACUACAUGAGGAUCACCCAUGUAAUAUUUAUUAGAAGAGAGGGUAUGUAGGACCGGGUAAGGAAGGC [e-trypB-0] | 15.8 |
| ACAUGAGGAUCACCCAUGUUUGAUGUUCCUCGAGGACCGGUACGGCCGCCACUCGAACGAGUGGCACGCGAGUGCGCACUCGCGU [aTa] | 11.3 |
| CGGACAUGAGGAUCACCCAUGUCGUCGACGCGAGGACCGGUACGGCCGCCACUCGCAUGCCAAUGAGCGCAUGCGGCCUGGGUAU [Exclusion Tryp A GF5] | 19.5 |
| AGGUAUGAUCCGGAUACCAGCGAACAUGAGGAUCACCCAUGUGACCUGAGAUAGGCUCUACGCCCUUGGCAGCCGCGAUCGCAGA [Same State Theophylline B GF11] | 11.4 |
| UUUUAGCAUCGAAGGAGCGCUGGUAGGUGACACAUGAGGAUCACCCAUGUGCUCCUUGCCGAGCAGGUAGGUCGCGAUGCUAUUU [SSAB NP+V+V2 #8] | 52.6 |
| GCCGGGCCCUCGGCCGCCACUGAGAGAGUCGUGUGAACAUGAGGAUCACCCAUGUAAUAUAUAUACAGGACCGGGAGGGCCCGGC [4.W] | 13.3 |
| AGACGAGAAGAGGUUUACCCAUGUACAGAAGGAGCGUCGUUGACGACAGGUAGGUCGCUGGAAACAUGAGGAUCACCCAUGUUGA [#06 Exclusion - Arginine A] | 40.8 |
| UUGUGGCGCUCGGCCGCCACUCCGACAUGAGGAUCACCCAUGUUCUACAUGAGGAUCACCCAUGUGAGGACCGGGAGACACAACC [Exclusion Tryptophan B GF12] | 126 |
| UUUGAGAUAACAGAUACCAGCGUGUUAUAAAACAUGAGGAUCACCCAUGUAGUGAUCAAGCGCCCUUGGCAGCUGGUGUUUUAGG [7.H] | 102 |
| UGGGUAGCAUAGCUUGAUAGCUACACUGAAGGAGCGAGGAUAACCUCAGGUAGGUCGCAGACAUGAGGAUCACCCAUGUAGAUGG [Same State Arginine A GF18] | 186 |
| AACAUGAGGAUCACCCAUGUCUGAACUGAAGGAGCGCUAAACAAGGCAGGUAGGUCGCGGAAUUUUGUGUGCAUAUGCAUAUGGG [9.J] | 24.4 |
| GACAUGAGGAUCACCCAUGUACCGCGAGAAGGAGCGCGGAUAAACGCAGGUAGGUCGCUCGUGGGCUUGUAUUCAAUCGUAAGCU [Anlaaranan] | 108 |

Same assay, conditions: Eterna round: R107; input ligand: theophylline 20 uM

| Sequence | apparent KD of MS2 coat protein [nM] |
| --- | --- |
| UGACGAUACCUGGAUACCAGCGACAUGAGGAUCACCCAUGUAUGAGGAUCAGCCAUGUUAUGCCCUUGGCAGCCACGAAGGUCUU [CSCMULLIN] | 55.4 |
| UACAUGAGGAUCACCCAUGUAUAGAGGGAUACCAGUGUCAGUGAGCACCCUUGGCAGCCCGCGAACAAUGGGUGCGCUAUAUAGU [#20 Exclusion-TheophyllineA] | 46.8 |
| AAUCGUAAGGCGGCCGCCACUACACAUGAGGAUCACCCAUGUCUCGCGGGCUUGCGUUGGGAUAGUAGGACCGGGCCAGUAAUAA [Exclusion - Tryptophan B (Freestyle 13)] | 33.7 |
| GUAGCUGAGUGUGAUACCAGAAACGACGUCCUUUAUCAUAACAUGAGGAUCACCCAUGUCUUCCCUUGGCAGCACUUUUCGGUCU [theeternabot_exclusion_MS2_Theo_B_24] | 53.6 |
| ACAUGAGGCUCACCCAUGUGUAGUGGGUGGCGAGGACCGGUACGGCCGCCACUCGGCAACAUGAGGAUCACCCAUGUAAGGCCCU [RNA Blob] | 134 |
| AUCGUACCUGAUGAUACCAGCAAGUGAUCAUAACAUGAGGAUCACCCAUGUAAUCAGUGAUGCCCUUGGCAGCAUAAUCGAUACA [Same State - Theophylline B (Freestyle 4)] | 204 |
| AUUCAUGGAAACAUGACAUACAUAUCCGGUCGAGGACCGGUACGGCCGCCACUCGUUUGGAGGCACAUGAGGAUCACCCAUGUUA [SS Tryp A #8] | 34.4 |
| GGCCGGUGCGCUUUGAAGCGACGGCGUGAUACCAGAUGUAAGAGCGUCCCUUGGCAGCACGUUUACAUGAGGAUCACCCAUGUCU [Zaveusxe] | 256 |
| UAGGUGAUCUUCAACGGAAAACGUUGUGAUACCAGCCAACAAUACGGCCCUUGGCAGCACAUGAGGAUCACCCAUGUGUACACCG [Vetizaatdi] | 48.7 |
| UGUAACAUGAGGAUCACCCAUGUGAGUGAUACCAGAUUAGUAGUAGUCCCUUGGCAGCAUAUUGGGCGAGUGUAUAGUCUAUGCG [Same State - Theophylline A (Freestyle 10)] | 250 |
| UAAUAAUUCCUCAUGUCACGAGUGGCAUAACGAGGACCGGUACGGCCGCCACUCGAACAUGAGGAUCACCCAUGUAGCCACUCGA [M'-T'-T-MS2-T'' - Design 4] | 286 |
| ACAUGAGGAUCACCCAUGUAGUGGCACGAUACCAGCUGAUCCCGUGGCCCUUGGCAGCGUCCGGUGUGGUGCGCCGGGAUGGAGC [ZSZMULLIN] | 50.8 |
| GCACAUGAGGAUCACCCAUGUACAACUGAAGGAGCGAGACAGAACUCAGGUAGGUCGCAGAAUGCACAAUAGCAUACGACAUGGG [Exclusion Arginine A GF20] | 52.1 |
| GCCUGGGAUACGGCCGCCACUACAUGAGGAUCACCCAUGUAAUAUUUAUUAGAAGAGAGGGUAUGUAGGACCGGGUAAGGAAGGC [e-trypB-0] | 24.9 |
| CUUCUGAAAGCAAUGGGAUCUGUUAUUGAUACCAGCAUCUGAUUUUGCCCUUGGCAGCAAGAAACAUGAGGAUCACCCAUGUGGC [theeternabot_exclusion_MS2_Theo_A_19] | 23.1 |
| ACAUGAGGAUCACCCAUGUUUGAUGUUCCUCGAGGACCGGUACGGCCGCCACUCGAACGAGUGGCACGCGAGUGCGCACUCGCGU [aTa] | 19.9 |
| CAUGUGAAAAUAAGAAGAAGAAGAAUAAAUCGAGGACCGGUACGGCCGCCACUCGUCGAAUCACAUGAGGAUCACCCAUGUAGCC [Tryptofun] | 52.6 |
| GCACCAGGUACGGAUACCAGACUCUGCCGAUUGGGUGAACAUGAGGAUCACCCAUGUUAGGUCCCUUGGCAGCCGUACCUGGUGC [#18 Exclusion-TheophyllineB] | 73.5 |
